A short description of this series: yeast display, Sf9 membrane polyspecificity reagent, FACS + sequencing; frameworks hold sequencing errors. An outline of the steps:
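A synthetic nanobody library was expressed on Saccharomyces cerevisiae BJ5465 by galactose induction for 36–48 hours. The library was stained for 1 hour at 4 °C with 10% biotinylated, detergent-solubilized Sf9 membrane reagent and enriched with streptavidin microbeads before FACS. Low and high (top ~1%) gates were set on anti-HA fluorescence for expression and streptavidin fluorescence for reagent binding, and each polyreactivity label reflects the gate of origin.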
Turning to “QVQLVESGGGLVQAGGSHRLSCAASGSTYTYNAMGWYRQAPGKERELVAAISSSGGTTYYADSVKGRFTISRDNAKNTVYLQMTSLKPEDTAVYYCAKRWLYTSAFRIMDYWGQGTQVTVSS”, the “polyreactivity (PSR sort gate)” value is reported as “high polyreactivity”. Consider “QVQLVESGGGLVQAGGSHRLSFAASGSLFYWYAMGWYRQAPGKERELVAAITTSGGRTYYADSVKGRFTISRDNAKNTVYLQMNSLIPEDSAVYYCNSAALFRYYDRWKTAYDYWGQGTQVTGSS”, for which the “polyreactivity (PSR sort gate)” value is “high polyreactivity”. For “QVQLVESGGGLVQAGGSHRLSGAASGFIFFYYDMGWYRQAPGKERELVAAISWSGSSTYYADSVNGRFTISRDNAKNTVYLQMNSLNTEDTAVYYCAARYAPSQDWDEYYYWGQGTQVTLSS” the value was “low polyreactivity”. In the case of “QVQLVESGGGLVQAGGSHRLSSAASVRIFRGYAMGWYRPAPGKERELVAVISYSGTRTYYADSVKGRFTISRDNAKNTVYLQMNSLKPEDTAVYYCNASANGFKEGYWGQGTQVTVSS”, the “polyreactivity (PSR sort gate)” value was “high polyreactivity”.

For the sequence “QVQLVESGGGLVQAGGSHRVRCAASGRTFSQYDLGWYRQEPGKERELVAAITRSGSRTYYADSVKGRFTISRDNAKNTVYLQMNSLKPEDTAVYYCNARSISRKKGYPPQRRDGYWGQGTQVTVSS”, the “polyreactivity (PSR sort gate)” value is reported as “high polyreactivity”. For “QVQLVESGGGLVQAGGSIRLSCAASGFIFQRYSMGWYRQAPGKERELVAAISSSGGSTYYADSVKGRFTISRDNAKNTVYLQMNSLKPEDTAVYYCAARVPPRTLAYYYWGQGTQVTVSS” the value was “high polyreactivity”; for “QVQLVESGGGLVQAGGSIRLSCAASGFIIKVYAMGWYRQAPGKERELVAAITWSGGSTYYADSVKGRFTISRDNAKNNVYLQMNSLKPEDTAVYYCNTDAYRYPEYDYWGQGTQVTVSS”, “low polyreactivity”; for “QVQLVESGGGLVQAGGSIRLSCAASGFTFSQYVMGWYRQAPGKERELVAAISYRGGSTYYADSVKGRFTSARDNAKNTVYLQMNSLQPEDTAVYYGAAVAYSWHNRYDYCGQGTQVTVSS”, “high polyreactivity”. For “QVQLVESGGGLVQAGGSIRLSCAASGRIFGSYVRGWYRQGPGKESELVAAISRRGGSTYYADSVTWRFTISRDNAKNTVYLQMNSLTPEDTAVYYCAAEFSPSSNPYDYWGQGTQVTVSS” the value was “high polyreactivity”; for “QVQLVESGGGLVQAGGSIRLSCAASGRTFGYYAMGWYRQAPGKERELVAAITRTGGSTHYADSVKGRFTISRDNAKNTVYLQMNSLKPEDTAVYYCALDYRYTIPYDYWGQGTQVTVSS”, “low polyreactivity”. For “QVQLVESGGGLVQAGGSIRLSCAASGSIFWYNAMGWYRQAPGKERELVAGITSGGDTNYADSVKGRFTISRDNAKNTVYLQMNRLKPEDTAVYYCAKRWDGGRRYDYWGQGTQVTVSS” the value was “low polyreactivity”; for “QVQLVESGGGLVQAGGSIRLSCAASGSISAEKSMGRDRQAPGKERELVAAITSGGSTDYADSVKGRFTISRDNAKNNVYLQMNSLKPVDTAVSYCAASGRVGPGYWYDYWGQGTQVTVSS”, “low polyreactivity”; for “QVQLVESGGGLVQAGGSIRLSCAASGSISPQNVMGWYRQAHGKERELVAAITGGGSTNYADSVKGRFTISRDNAKNTVYLQMNSLIPEDTAVYYCAADGRYAYGYNHWGQGTQVTVSS”, “low polyreactivity”.

With “QVQLVESGGGLVQAGGSIRLSCAASGSSFVSYAMGWYRQAPGKERELVATISWRGGSTYYADSVKGRFTISRDNAMNTVYLQMNSLKTEDTAVYYCAADVWHSQYYYGYEYWGQGTQVTVSS”, the “polyreactivity (PSR sort gate)” value is on record as “low polyreactivity”. Consider “QVQLVESGGGLVQAGGSIRLSCAASGSTFCVNAMGWDRQAPGKERELVAVITFTGSRTYYADSVKGRFTISRDNAKNTVYLQMNSLKPEDTAVYYCAADRRRVLYKFDYWGQGTQVTVSS”, for which the “polyreactivity (PSR sort gate)” value is on record as “low polyreactivity”. Turning to “QVQLVESGGGLVQAGGSIRLSCAASGSTFRLYARGWYRQAPGKEREFVAAISFRGGSTYYADSVKGRFTISRDYSKNTVYLQMNSLKPEDTAVYYCNADYYYYYSWFNYWGQGTQVTVSS”, the “polyreactivity (PSR sort gate)” value was “high polyreactivity”. As for “QVQLVESGGGLVQAGGSIRLSCAASGSTIGKNVMGWYRQAPGKERELVAAISARGGRTYYGDSVKGRFTISRDNAKNTVYLQMNSLKPVDTAVYYCNTERSYTGTGRYHSSTAYGYWGQGTQVTVSS”, the “polyreactivity (PSR sort gate)” value is “high polyreactivity”.

For the sequence “QVQLVESGGGLVQAGGSIRLSCAASGSTSYIKVMGWYRQAPGKEREMVATISSSGGNTYYADSVKGRFTISRDNAKNTVYLQMNSLKPEDTAVYYCAAKVRVWYYRMDSWGQCTQVTVSS”, the “polyreactivity (PSR sort gate)” value was “low polyreactivity”.

Regarding “QVQLVESGGGLVQAGGSIRLSFPASGRTFAYNAMGRYRPAPGKERELVADITSGGSTYYADSVKGRFTISRENAKNTVYLQMNRLKREDTAVYYCAAYPQFWYWDYNYWGQGTQVTVSS”, the “polyreactivity (PSR sort gate)” value is given as “high polyreactivity”. In the case of “QVQLVESGGGLVQAGGSIRLTCAASGRIYEIYTMGWYRQATGKETEFVAGITWSGGSTYYADSVKGRFTISRDNAKNTFYLQMNSLKPEDTAVYYCATDEVYWTGYAPSLFDYWGQGTQVTVSS”, the “polyreactivity (PSR sort gate)” value was “low polyreactivity”. On to “QVQLVESGGGLVQAGGSIRLTCAASGSIFVFYAMGWYRQAPGKEREFVATITWSGTSTYYADSVKGRFSISRDNAKNTVYLQMNSLKPEDTAVYYCAARYLGGRRSGDYSRYYWGQGTQVTVSS”, for which the “polyreactivity (PSR sort gate)” value was “high polyreactivity”. On to “QVQLVESGGGLVQAGGSIRLTCTPSGIIFGTYAMGWYIQAPGKERELVAAISSSGVSTYYADSVKGRFTISRDNAKNTVYLQMNSLKPEDTAVYYCNARGSNGRSDYDYWGQCTQVTVSS”, for which the “polyreactivity (PSR sort gate)” value is listed as “high polyreactivity”. For “QVQLVESGGGLVQAGGSLCLSCAASGIFVYNAMVWYRQAPGKEREFVAAINKSGASTFYADSVKGRFTISRDNAKNTVYLQMNSLKPEDTAVYYCRERDYWGQGTQVTVSS” the value was “low polyreactivity”; for “QVQLVESGGGLVQAGGSLGLSCAASGFTFDLYAMGWYRQAPGKERALVAAISWSGGSTRYADSVKGRFTISRDYAKNTVYLQMNSLKPEDTAVYYCARQPRLYFKGKLYGYWGQGTQVTVSS”, “high polyreactivity”. In the case of “QVQLVESGGGLVQAGGSLGLSCAASGFTFHNYAMGWYRQAPGKERELVAAITWDGGSTYYAVSVKGRFTISRDKAKNTVDLQMNSLKPEDTAVYYCALDPYYYYYGDYNFDYWGQGTQVTVSS”, the “polyreactivity (PSR sort gate)” value was “high polyreactivity”. For “QVQLVESGGGLVQAGGSLGLSCAASGRSLIWYAMGWYRQAPGKERELVAAITSGGRTYYADSVKGRFTISRDNAKKTVYLQMNSLKPEDTAVYYCNKVGRDPGRDFWGQGTQVPVSS”, the “polyreactivity (PSR sort gate)” value was “high polyreactivity”. “QVQLVESGGGLVQAGGSLGLSCAASGRTFANNAMGWYRQAPGKERELVARISNSGSTNYADSVKGRFTISRDNAKNTVYLQMNSLKPEDTAVYDCAARIVRLYSRYDYWGQGTQETVSS”: the “polyreactivity (PSR sort gate)” value is reported as “low polyreactivity”. Take “QVQLVESGGGLVQAGGSLGLSCAASGRTFQQNAMGWYRQAPGKERELVAALNSRGGRTYYADYVKGRFTISRDNAKNTVYLQMNSLKPEDTAVYYCAARYYWGQGTEVTVSS”: the “polyreactivity (PSR sort gate)” value is recorded as “high polyreactivity”. Consider “QVQLVESGGGLVQAGGSLGLSCAASGRTFSYYAMGWYRQAPGKERELVAAISASGGRTYYADSVKGRFTISRDNAKNTDYLQMNSLTPEDTAVYYCAAGSYQRYAFDYWGQGTQVTVSS”, for which the “polyreactivity (PSR sort gate)” value is recorded as “high polyreactivity”. For “QVQLVESGGGLVQAGGSLGLSCAASGSIFSRNTMGWYRPARGKERELVAAITSSGGNTYYADSVKGRFTISRDNAKNTVYLQMNSLKPDDTAVYYCAADVAQVGYQVGDSEIYPGYEDWGQGSQVTVSS”, the “polyreactivity (PSR sort gate)” value was “low polyreactivity”.

With “QVQLVESGGGLVQAGGSLGLSCAASGYTFDHNAMGWYRQAPGKERELVAAINWSGGSTYYADSVKVRFTISRDNAKNTVYLQMKSLKPEDTAVYYCARYRVLASRVDYWGQGTQVTVSS”, the “polyreactivity (PSR sort gate)” value is on record as “high polyreactivity”. For the sequence “QVQLVESGGGLVQAGGSLGLSCAATGSIFNPYAMGWYRQAPGKVRELVAAISSTGSTYYADSVKGRFTISRDNAKNTVYLQMISLKPEDTAVYYCAADWYWYWFSTYDYWGQGTEVTVSS”, the “polyreactivity (PSR sort gate)” value is reported as “low polyreactivity”. As to “QVQLVESGGGLVQAGGSLLLSCAASGFIFGPYALGWYRQAPGKERELVAAITWRGGRTYYADSVKGRFTISRDNAKNTVYLQMNSLKPEDTAVYYCAADYPYAMDYWGQGTQVTVSS”, the “polyreactivity (PSR sort gate)” value is listed as “high polyreactivity”.

With “QVQLVESGGGLVQAGGSLLLSCAASGFIFPPYDMGWYRQAPGKEMELVAGISDVGTTYYADSVKGRFTISRDNAKNTVYLQMNSLKPEDTAVYYCAAESQGDDQFWTGGYDSWGQGTQVTVSS”, the “polyreactivity (PSR sort gate)” value is reported as “low polyreactivity”. As to “QVQLVESGGGLVQAGGSLLLSCAASGGTFYYYAMGWYRQAPGKERELVASISSRGGSTYYADSVKGRFTISRDNAKNTVYLQMNSLKPEDTAVYYCAARSLYRGFGYWGQGTQVTVSS”, the “polyreactivity (PSR sort gate)” value is “high polyreactivity”. For “QVQLVESGGGLVQAGGSLLLSCAASGGTFYYYTMGWYRQAPGKERELVAAISWSGGSTYYADSVKGRFTISRDNAKNTVYLQMNSLKPEDTAVYYCAALAYVSDYDYWGQGTQVTVSS” the value was “high polyreactivity”; for “QVQLVESGGGLVQAGGSLLLSCAASGITFFTYAKGWYRQAPGKERELDAAISGSGGSTYYADSVKGRFTISRDNAKKTVYLQMNSLKPEDTAVYYCAAERENGDHYRYYYWGQGTQVTVSS”, “low polyreactivity”; for “QVQLVESGGGLVQAGGSLLLSCAASGITFPKYAMGWYRQAPGKERELVAAITKSGGSTYYADSVKGRFTISRDHAKNTVYFQMNSLKPEDTAVYYYAARPRYGEYDYWGQGTQVTVSS”, “high polyreactivity”. As for “QVQLVESGGGLVQAGGSLLLSCAASGRTFAPYAMGWYRQAPGKERELVAAISSGGGNTYYADSVKGRFTISRDNAKITVYLHMNSLKPEDTAVYYCNAAQRRGGLGYSGQGTQVTVSS”, the “polyreactivity (PSR sort gate)” value is reported as “high polyreactivity”. With “QVQLVESGGGLVQAGGSLLLSCAASGSIFDFYGMGWDRQAPGKERELVATITGTGGGTYYADSVKGRFTISRDNAKNTVYLKMNSLKPEDTAVYYCAADYPYGYWRGLFYYWGQGTQVTVSS”, the “polyreactivity (PSR sort gate)” value was “low polyreactivity”. As for “QVQLVESGGGLVQAGGSLLLSCAASGSTCSYYAMGWYRQAPGKERQLVAAINRSGGSTYYADSVMGRFTISRDNAKNTVYVQMNSLKPEDTAVYSCAALRSKTVSYDRYDYWGQGTQVTVSS”, the “polyreactivity (PSR sort gate)” value was “high polyreactivity”.

The values are drawn from the nanobody polyreactivity screen of Harvey et al. (2022).
